B1: LINE1-mini (parent)
chain: GGCAGAGCUCAACACAGCGUGGCAAAGUGGCUGUGGCUAGACUGCC

Variants of: B1
Test: self-cleavage, relative activity (ratio to wild type); higher = more cleavage; in vitro, sequencing; the parent is a self-cleaving ribozyme

| Variant | self-cleavage |
| --- | --- |
| U28C C45U | 1.88 |
| U28C C45A | 1.7 |
| U28C C46G | 1.68 |
| U28C C46A | 0.66 |
| U28C C46U | 0.51 |
| G27U C31A | 0.46 |
| G27U C31U | 0.33 |
| G27U C31G | 0.21 |
| U28A G33C | 0.03 |
| U28A G33A | 0.06 |
| U28A G33U | 0.16 |
| G27U G40A | 0.13 |
| G27U G40C | 0.16 |
| G27U G40U | 0.13 |
| G27C C37A | 0.06 |
| G27C C37G | 0.02 |
| G27C C37U | 0.04 |
| G27A G44C | 0.65 |
| G27A G44U | 0.3 |
| G27A G44A | 0.34 |
| G27A G40C | 0.17 |
| G27A G40A | 0.18 |
| G27A G40U | 0.14 |
| U28C C42U | 0.15 |

| Variant | self-cleavage |
| --- | --- |
| U28C C42G | 0.13 |
| U28C C42A | 0.16 |
| G27C G33U | 0.12 |
| G27C G33C | 0.04 |
| G27C G33A | 0.13 |
| U28G C37U | 0.03 |
| U28G C37G | 0.03 |
| U28G C37A | 0.03 |
| G29A A39G | 0.07 |
| G29A A39C | 0.21 |
| G29A A39U | 0.93 |
| G29A G30U | 1.41 |
| G29A G30A | 2.29 |
| G29A G30C | 1.52 |
| G27U G44A | 0.43 |
| G27U G44U | 0.37 |
| G27U G44C | 0.82 |
| G27A G36U | 0.08 |
| G27A G36C | 0.25 |
| G27A G36A | 0.09 |
| U28G C31A | 0.22 |
| U28G C31G | 0.28 |
| U28G C31U | 0.47 |
| U28A U43G | 0.03 |

| Variant | self-cleavage |
| --- | --- |
| U28A U43C | 0.09 |
| U28A U43A | 0.11 |
| U28A G30U | 0.77 |
| U28A G30C | 0.62 |
| U28A G30A | 1.65 |
| U28A A39U | 0.39 |
| U28A A39G | 0.05 |
| U28A A39C | 0.15 |
| G27U G35A | 0.18 |
| G27U G35C | 0.09 |
| G27U G35U | 0.24 |
| G27U C42G | 0.04 |
| G27U C42A | 0.17 |
| G27U C42U | 0.2 |
| U28C U34G | 0.21 |
| U28C U34A | 0.22 |
| U28C U32A | 0.09 |
| U28C U32C | 0.27 |
| U28C U32G | 0.3 |
| U28C C31U | 0.45 |
| U28C C31A | 0.87 |
| U28C C31G | 0.16 |
| G27U U28A | 0.34 |
| G27U U28G | 1.08 |

| Variant | self-cleavage |
| --- | --- |
| G27U U28C | 1.23 |
| U28G G40A | 0.12 |
| U28G G40C | 0.07 |
| U28G G40U | 0.09 |
| G27U C46U | 1.05 |
| G27U C46G | 0.76 |
| G27U C46A | 1.11 |
| G27C G29C | 0.37 |
| G27C G29U | 0.51 |
| G27C G29A | 0.39 |
| G29A G36A | 0.11 |
| G29A G36C | 0.09 |
| G27C U34C | 0.08 |
| G27C U34A | 0.2 |
| G27C U34G | 0.2 |
| G27C C45A | 0.29 |
| G27C C45U | 2.02 |
| G27C C45G | 0.32 |
| G29A G33A | 0.12 |
| G29A G33U | 0.12 |
| G29A G33C | 0.06 |
| G27C U32G | 0.08 |
| G27C U32A | 0.09 |
| G27C U32C | 0.12 |

| Variant | self-cleavage |
| --- | --- |
| G27U U43A | 0.17 |
| G27U U43G | 0.11 |
| G27U U43C | 0.1 |
| U28C G44C | 0.27 |
| U28C G44A | 0.67 |
| U28C G44U | 0.34 |
| G27C G40A | 0.12 |
| G27C G40C | 0.07 |
| G27C G40U | 0.12 |
| G27U G30A | 1.86 |
| G27U G30C | 1.79 |
| G27U G30U | 1.53 |
| G27U G29U | 1.03 |
| G27U G29A | 0.96 |
| G27U G29C | 0.27 |
| G29A G35C | 0.09 |
| G29A G35U | 0.15 |
| G29A G35A | 0.23 |
| G27U U32G | 0.16 |
| G27U U32C | 0.19 |
| G27U U32A | 0.07 |
| U28G U32G | 0.24 |
| U28G U32C | 0.27 |
| U28G U32A | 0.05 |

| Variant | self-cleavage |
| --- | --- |
| G29A C31U | 0.95 |
| G29A C31G | 0.39 |
| G29A C31A | 0.43 |
| G29A | 0.88 |
| U28G G33C | 0.05 |
| U28G G33U | 0.06 |
| U28G G33A | 0.11 |
| U28A C45G | 0.24 |
| U28A C45A | 0.29 |
| U28A C45U | 1.28 |
| U28A G44U | 0.33 |
| U28A G44C | 0.62 |
| U28A G44A | 0.23 |
| G29A C42G | 0.04 |
| G29A C42U | 0.42 |
| G29A C42A | 0.16 |
| U28C C37U | 0.06 |
| U28C C37G | 0.01 |
| U28C C37A | 0.03 |
| U28C A41U | 0.45 |
| U28C A41C | 0.03 |
| U28C A41G | 0.43 |
| U28A U38G | 0.01 |
| U28A U38C | 0.38 |

| Variant | self-cleavage |
| --- | --- |
| U28A U38A | 0.38 |
| G27A G35U | 0.22 |
| G27C G36C | 0.09 |
| G27C G36A | 0.35 |
| G27C G36U | 0.05 |
| G29A C46A | 0.89 |
| G29A C46G | 0.74 |
| G29A C46U | 0.82 |
| G27C A41U | 0.25 |
| G27C A41G | 0.25 |
| G27C A41C | 0.03 |
| G27U U34A | 0.23 |
| G27U U34G | 0.26 |
| G27U U34C | 0.19 |
| G27C G35C | 0.25 |
| G27C G35A | 0.09 |
| G27C G35U | 0.07 |
| U28G U34G | 0.23 |
| U28G U34C | 0.11 |
| U28G U34A | 0.26 |
| G27U C45A | 0.92 |
| G27U C45U | 1.6 |
| G27U C45G | 0.37 |

From the RNAGym collection of RNA variant scans (doi:10.7554/elife.90254)
